Reference: US20090215639A1

Biological target: human full length IgG1 (Calbiochem) (human)
Assay: BIAcore SPR, IgG1 immobilized, soluble receptor injected

Row | Substance | fold faster koff against FcγRIIIaV158 [fold] | koff [s⁻¹]
1 | FcγRIIIa F158 (receptor) | 6 | 0.0858
2 | FcγRIIIa V158 (receptor) | – | 0.0139
